Laboratory results from patent US20250243282A1 (TRUEBINDING, published 2025).
Numbering of substitutions follows the chain as printed.

B1: 849.5H1 (antibody, V domains shown)
VH: QVQLKESGPVLVAPSQSLSITCTVSGFSLTSYGIHWVRQPPGKGLEWLGVIWAGGSTNYNSALMSRLSISKDNSKSQVFLKMNSLQIDDTAMYYCAKPPHDYDQAWFAYWGQGTLITVSA
VL: DIQMNQSPSSLSASLGDTITITCHASQNINVWLSWYQQKPGNIPKLLIYQASNLHTGVPSRFSGRGSGTGFTLTISSLQPEDIATYYCQQGQSSPFTFGSGTKLEIK
B2: 2D10-VH0-VL0 (antibody, human IgG4 S228P, kappa, V domains shown)
VH: QVQLQQSGPELVKPGASVKISCKASGYTFTDYYINWVKQRPGQGLEWIGWIYPGSQDTKYNEKFKGKATLTVDTSSSTAYMQLGSLTSEDSAVYFCANYFGSSGWFFDVWGTGTTVTVSS
VL: DIVMTQAAFSNPVTLGTSASISCRSSKSLLHSDGITYLYWYLQRPGQSPQLLIYRMSNLASGVPDRFSGSGSGTDFTLRISRVEAEDVGVYYCAQMIEFPLTFGAGTILELKR
B3: 15G7.2A7 (antibody, human IgG4 S228P, kappa, V domains shown)
VH: EVQLQQSGPELVKPGASVKISCKASGYTFTDYYMNWVKQSHGKSLEWIGDINPNNGGTNYNQKFKGKATLTVDKSSSTAYMELRSLTSEDSAVYYCTSGYGFPYWGQGTLVTVSA
VL: DIQMNQSPSSLSASLGDTISITCRASQNINIWLSWYQQKPGNIPQLLIYKASNLHTGVPSRFSGSGSGTDFTLTISSLQPEDIATYYCLQGQSYPLTFGAGTKLVMKR
B4: 847.16D10 (antibody, V domains shown)
VH: QVQLQQSGAELVRPGASVKLSCKASGYTFTGYWLNWVKQRPGQGLEWIGMIDPSDSETHYNQVFKDKATMTVDRSSSTAYMQLSGLTSEDSAVYYCANSNYASGSWGQGTTLTVSS
VL: QAVVTQESALTTSPGETVTLTCRSSTGAVTTSNYANWDQEKPDHLFTGLIGGTNNRAPGVPARFSGSLIGDKAALTITGAQTEDEAIYFCALWYSNHLVFGGGTKVTVL
B5: 847.13E2-mH0mL1 (antibody, V domains shown)
VH: EVQLQQSGPELVKPGASVKVSCKASGYSFTDYNMYWVMQSHGKSLEWIGYIDPYNDATSYSQKFTGKATLTVDKSSSTAFMHLNSLTSEDSAVYYCARWGRYEYYAMDYWGQGTSVTVSS
VL: DIVMTQSPASLPVSLGQRATISCRASKSVTTSAYSYIHWYQQRPGQPPKLLIYLASNLESGVPARFSGSGSGTDFTLNIHPVEEEDAATYYCQHNRELPPTFGGGTKLEIN
B6: 847.13E2-mH0mL2 (antibody, V domains shown)
VH: B5 VH
VL: DIVLTQSPATLSVTPGDSVSFSCRASQIINNNLHWYQQKSHESPRLLIRYTSQSISGIPSRFSGSGSGTDFTLSINNVETEDFGMYFCQQTNSWPLTFGAGTKLELK
B7: 20H5.A3 (antibody, mouse IgG2a, V domains shown)
VH: QIQLVQSGPELKKPGESVKISCKASGYAFTTYGMSWVQQAPGKGLKWMGWVNTYSGVPTCADDFKGRFAFSLETSASTAYLQINNLRNEDTATYFCARGPYAMDYWGQGTSVTVSS
VL: DIQMTQTTSSLSASLGDRVTINCSASQDISNYLNWYQQKPDGTVKLLIYYTSSLLSGVPSRFSGSGSGTDYSLTISNLEPEDIATYFCQQYSKLPYTFGSGTHLEIKR
B8: 23H9.2E4 (antibody, mouse IgG2a, V domains shown)
VH: B7 VH with S17T, A28T, G33A, Q38K, V51I, C60Y, F64L, R87K
VL: B7 VL with N22S, D28G, S30N, T51A, L55H, F87Y, K93Q, L94V, H103K
B9: 847.23F11 (antibody, V domains shown)
VH: QVQLQQSGAELVRPGASVKLSCKASGYTFTSSWMNWVKQRPGQGLDWIGMIDPSDSETHYNQMFKDKATLTVDKSSNTAYMQLSRLTSEDSAVYYCVNSNYESGYWGQGTTLTVSS
VL: DILMTQSHKFMSTSVGDRVSITCKASQDVSSVVVWYQQKPGQSPKQLIYWASTRHTGVPDRFTGSGSGTDYTLTISSVQAEDLALYYCQQHYSTPYTFGGGTKLEIK
Note: test concentration or dose not given here.

The binders below were run against T1, Recombinant human Gal3 (rhGal3) (TrueBinding, #QC200361) (human, UniProt P17931 2-250) (assay: cell-based or functional assay).
In the case of B1, the “% inhibition of CD62L shedding” value is reported as 87.5%. For B2, the “% inhibition of CD62L shedding” value was 62.4%. B3 was tested, and the “% inhibition of CD62L shedding” value was 110%. B4 was tested, and the “% inhibition of CD62L shedding” value was 14.4%. In the case of B5, the “% inhibition of CD62L shedding” value is reported as 79.9%. For B6, the “% inhibition of CD62L shedding” value was 18.8%. In the case of B7, the “% inhibition of CD62L shedding” value is reported as 66.3%. B8 was tested, and the “% inhibition of CD62L shedding” value was 91.9%. With B9 the “% inhibition of CD62L shedding” value was 15.2%.

Target: T1, Recombinant human Gal3 (rhGal3) …
Assay: cell-based or functional assay
Remark: another data set of the same source
B2 was tested, and the “% inhibition of IL-6 secretion” value was 21.7% and the “% inhibition of TNFα secretion” value was 39.6%. In the case of B3, the “% inhibition of IL-6 secretion” value is reported as 31% and the “% inhibition of TNFα secretion” value is reported as 46.1%. B7 was tested, and the “% inhibition of IL-6 secretion” value was 77.5% and the “% inhibition of TNFα secretion” value was 60.8%. For B8, the “% inhibition of IL-6 secretion” value was 92.6% and the “% inhibition of TNFα secretion” value was 100%.
